Measured values reported in US20170198014A1 (UNIVERSITY WASHINGTON THROUGH ITS CENTER FOR …, published 2017).
Positions count from the first letter of the chain named.

B1: SB24alt1-1 (designed binder)
chain: ASGMLAISMDTDKISNSFEDCKYFQLYVLSAGWTNTIFNDESGKEEIVKMSVDAIICKNISEENYKKFSKKIEIYHAEGDDVDKNISLFLEGELSKISNP
B2: SB24solo2 (designed binder)
chain: B1 chain with Q25L, L26I, Y27E, V28L, L29K, S51G, D83N

Molecular target: hemagglutinin H1 (A/California/04/2009) (influenza A virus A/California/04/2009 …, UniProt P26140 18-529)
Assay: yeast surface display titration

Row | Binder | binding result
1 | B1 | no binding
2 | B2 | no binding
